Key:
Assay type in all cases: cell-based, human
MDA-MB-231 cells [1] = assay: Endocytosis capacity of murine monoclonal antibody (flow cytometry internalization); settings: antibody 1.5 μg/mL; for Internalization MDA-MB-231 (%) 0.5 h: MDA-MB-231, 0.5 h at 37° C.; for Internalization MDA-MB-231 (%) 1 h: MDA-MB-231, 1 h at 37° C.; for Internalization MDA-MB-231 (%) 2 h: MDA-MB-231, 2 h at 37° C.
Procedure, shortened: (§1)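 MDA-MB-231 and PC3 cells (EDTA-detached, Fc-blocked) bound with 1.5 μg/mL test antibody at 4° C for 30 min, washed, then held at 37° C for 0.5, 1 or 2 h. Surface antibody detected with PE anti-human IgG Fc by flow cytometry; internalization (%) = (Geo-MFI 0 h − Geo-MFI at time point)/Geo-MFI 0 h × 100%.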

PC3 cells = assay: as above; settings: antibody 1.5 μg/mL; for Internalization PC3 (%) 0.5 h: PC3, 0.5 h at 37° C.; for Internalization PC3 (%) 1 h: PC3, 1 h at 37° C.; for Internalization PC3 (%) 2 h: PC3, 2 h at 37° C.
Procedure, shortened: as §1

MDA-MB-231 cells [2] = assay: Effect of antibody on tumor cell proliferation (CellTiter-Glo); settings: MDA-MB-231, 96 h
Protocol: (§2) 3000 cells (breast cancer MDA-MB-231, prostate cancer PC-3 cells)/well were plated onto 96-well plates overnight, an antibody at a final concentration of 500 nM to 0.00128 nM (100 nM to 0.000256 nM, 100, 20, 4, 0.8, 0.16, 0.032, 0.0064, 0.00128, 0.000256 nM, respectively) was added; after a 5-fold dilution across 9 concentration points and culturing in a CO2 incubator at 37° C. for 96 h, half of the medium (100 μL) was discarded, and 100 μL of CellTiter-Glo Luminescent Cell Viability assay reagent (Promega, cat #G7570) was added to detect signal values on a BMG microplate reader. The inhibition of antibody on tumor cell growth was calculated by graphpad fitting based on the signal value and antibody concentration.

PC-3 cells = assay: as above; settings: PC-3, 96 h
Protocol: as §2

MDA-MB-231 cells [3] = assay: Transwell tumor cell migration experiment; settings: MDA-MB-231, antibody 10 μg/ml
Protocol: In order to determine the effect of antibodies on tumor cell metastasis, the migration ability of tumor cells was examined in this study according to a transwell experiment. The specific cell migration experiment involved culturing and collecting MDA-MB-231 cells, washing them once with PBS, adjusting the density to 8×10^5 cells/mL, adding the antibody to be tested to the cells such that the working concentration thereof was 10 μg/ml, co-incubating for 30 mins, adding a cell suspension to the upper chamber of the transwell chamber, placing the transwell chamber in the incubator for 12-48 h, then removing the chamber (transwell chamber, to examine cell migration ability), immobilizing the cells, staining the cells with crystal violet for 15 mins, washing, air drying, mounting, and taking photos of 4-5 fields of view under a microscope, and counting the number or area of the stained cells using imageJ analysis software, the number or area was used as the basis for determining tumor cell migration.

| Molecule | Internalization MDA-MB-231 (%) 0.5 h (MDA-MB-231 cells [1]) | Internalization MDA-MB-231 (%) 1 h (MDA-MB-231 cells [1]) | Internalization MDA-MB-231 (%) 2 h (MDA-MB-231 cells [1]) | Internalization PC3 (%) 0.5 h (PC3 cells) | Internalization PC3 (%) 1 h (PC3 cells) | Internalization PC3 (%) 2 h (PC3 cells) | effect on tumor cell growth (FIG. 4a) (MDA-MB-231 cells [2]) | effect on tumor cell growth (FIG. 4b) (PC-3 cells) | effect on tumor cell migration (transwell, FIG. 4c) (MDA-MB-231 cells [3]) |
| --- | --- | --- | --- | --- | --- | --- | --- | --- | --- |
| 6A7: anti-CDCP1 murine monoclonal antibody (hybridoma); VH SEQ ID NO: 243, VL SEQ ID NO: 294 (antibody, V domains shown, 6A7 heavy chain variable region; 6A7 light chain variable region) VH: EVQLKESGAELVRPGASVKVSCKASGYSFTSYWMNWVKQRPGQGLEWIGMIHPSDSETKLNQKFRDRASLTVDKSSSTAYMQLSSPTSEDSAVYYCTINYESFYYAMDYWGQGTTVTVSS VL: DIVMTQSPASLAVSLGQRATISCRASKSVSTSGYSYMHWYQQKPGQPPKLLLYLASNLESGVPARFSGSGSGADFTLNIHPVEEEDAATYYCLHSRELPYTFGGGTKLEIK | 28.97% | 43.77% | 58.78% | 22.99% | 35.14% | 49.86% | did not exhibit an effect on tumor cell growth | did not exhibit an effect on tumor cell growth | better capability to inhibit tumor cell migration than SEQ135 |
| 3C11: anti-CDCP1 murine monoclonal antibody (hybridoma); VH SEQ ID NO: 240, VL SEQ ID NO: 291 (antibody, V domains shown, 3C11 heavy chain variable region; 3C11 light chain variable region) VH: EVQLQQSGTVLARPGASVKMSCKASGYNFISYWLHWIKQRPGQGLEWIGGIYPGNTDTTYNQKFKGKAKVTAVTSATTAYMELSSLTNEDSAVYYCIRYDYDRGMDYWGQGTTVTVSS VL: DIQMTQSPSSFSVSLGDRVTITCRASEDIYYRLAWYQQKPGNAPRLLISGATALETGVPSRFSGSGSGKDYTLSITSLQTEDVATYYCQHYWNIPWTFGGGTKLEIK | 28.50% | 36.16% | 52.23% | 28.45% | 39.70% | 59.90% | did not exhibit an effect on tumor cell growth | did not exhibit an effect on tumor cell growth | better capability to inhibit tumor cell migration than SEQ135 |
| 3B12H5: anti-CDCP1 murine monoclonal antibody (hybridoma); VH SEQ ID NO: 239, VL SEQ ID NO: 290 (antibody, V domains shown, 3B12H9/3B12H5 heavy chain variable region; 3B12H5 light chain variable region) VH: EVQLQQSGTVLARPGASVKMSCKASGYSFTIYWVHWVKQRPGQGLEWIGAVYPGNDDTSYNQNFKGKAKLTAVTSATTAYMELSSLTIDDSAVYYCTRHTYDEVFDYWGQGTTVTVSS VL: DIVMTQSPSSLSVSLGDRVTITCKASEDIYYRLAWYQQKPGNAPRLLISGGTNLEAGIPSRFSGSGSGKDYTLSITSLQTEDVAIYYCQHYWNTPWTFGGGTKLEIK | 20.76% | 29.93% | 49.69% | 16.54% | 30.28% | 50.50% | did not exhibit an effect on tumor cell growth | did not exhibit an effect on tumor cell growth | better capability to inhibit tumor cell migration than SEQ135 |
| G10F6: anti-CDCP1 murine monoclonal antibody (hybridoma); VH SEQ ID NO: 256, VL SEQ ID NO: 306 (antibody, V domains shown, G10F6 heavy chain variable region; G10F6 light chain variable region) VH: EVKLVESGPGILQPSQTLSLTCSFSGFSLSTSGMGVSWVRQPSGKGLEWLAHIYWDDDKRYNPSLKGRLTISKDTPRNQVFLEITSVDTTDTATYYCARVPGNWDEDAMDYWGQGTTVTVSS VL: DIQMTQSPLSLPVSLGDQASISCRSSQNIVHTNGNTYLEWYLQKVGQSPKLLIYKVSNRFSGVPDRFSGSGSGTDFTLKISRVEAEDLGVYYCFQGSHVPYTFGGGTKLEIK | 34.49% | 50.70% | 67.02% | 3.36% | 20.68% | 54.36% | did not exhibit an effect on tumor cell growth | did not exhibit an effect on tumor cell growth | better capability to inhibit tumor cell migration than SEQ135 |
| 14A10C5: anti-CDCP1 murine monoclonal antibody (hybridoma); VH SEQ ID NO: 257, VL SEQ ID NO: 307 (antibody, V domains shown, 14A10C5 heavy chain variable region; 14A10C5 light chain variable region) VH: EVKLVESGPGILQPSQTLSLTCSFSGFSLSTSGMGVSWIRQPSGKGLEWLAHIYWDDEKRYNPSLKSRLTISKDTSSNQVFLKITSVDTADTATYYCAREGSANWEAMDYWGQGTTVTVSS VL: DIVMTQAALSLPVSLGDQASISCRSSQNIVYTNGITYLEWYLQKPGQSPKLLIYKVSNRFSGVPDRFSGSGSATDFTLKISRVEAEDLGVYYCFQSSHVPWTFGGGTKLEIK | – | – | 39.23% | – | – | 51.73% | – | – | better capability to inhibit tumor cell migration than SEQ135 |
| 8E5: anti-CDCP1 murine monoclonal antibody (hybridoma); VH SEQ ID NO: 258, VL SEQ ID NO: 308 (antibody, V domains shown, 8E5 heavy chain variable region; 8E5 light chain variable region) VH: EVQLKESGPELKKPGETVKISCKASGYTLTDFSMHWLKQAPGKGLKWMGWINTETGAPTYADDFKGRFALSLDTSANTAYLQINNLKNEDTATYFCSRGRDYDPHFDYWGQGTTVTVSS VL: EIVLTQSPATLSVTPGDRVSLSCRASQSISDFLHWYQQRSHESPRLLIKYASQSISGIPSRFGGSGSGSDFTLNINTVEPEDVGMYYCQSAHSFPYTFGGGTKLEIK | 24.32% | 38.20% | 53.26% | 6.54% | 17.17% | 42.94% | did not exhibit an effect on tumor cell growth | did not exhibit an effect on tumor cell growth | better capability to inhibit tumor cell migration than SEQ135 |
| 10D2: anti-CDCP1 murine monoclonal antibody (hybridoma); VH SEQ ID NO: 260, VL SEQ ID NO: 310 (antibody, V domains shown, 10D2 heavy chain variable region; 10D2 light chain variable region) VH: EVQLQQSGPELKKPGETVKISCKASGYTFTDYSMHWVKQAPGKGLKWMGWINTETGQPTYADDFKGRFAFSLETSASSAYLQINNLKNEDTATYFCTRTFYYDYVGDYWGQGTTVTVSS VL: DIVMTQSHKFMSTSVGDRVSITCKASQDVSTAVAWYRQKPGQSPKLLIYWASTRHTGVPDRLTGSGSGTDFALTINSVQAEDLALYYCQQHSSTPYTFGGGTKLEIK | 46.38% | 57.85% | 70.77% | 21.48% | 41.99% | 64.19% | did not exhibit an effect on tumor cell growth | did not exhibit an effect on tumor cell growth | better capability to inhibit tumor cell migration than SEQ135 |

— patent US20260250410A1, “ANTIBODY AND USE THEREOF” (SICHUAN HUIYU PHARMACEUTICAL CO., LTD., priority 2022, published 2026)
